Assay results as given in the supplement of paper PMC10567573.

B1: ZMYND11 (parent)
chain: YCSIKCQQEHWHAEHKRTCRRKR

Variants of: B1
Assay: protein stability index of a GFP-peptide fusion (GPS, HEK-293T) (PSI 1-6); higher = more stable
Details: c terminus: native
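Further: lentivirally expressed fusions sorted by FACS into six bins by GFP to DsRed ratio, PSI derived from sequencing read proportions per bin multiplied by bin number.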

| Variant | protein stability index |
| --- | --- |
| YCSIKCQQEHWHAEHKRTCRRIR | 2.37 |
| YCSIKCQQEHWHAEHKRTCRRLR | 2.02 |
| YCSIKCQQEHWHAEHKRTCRRWR | 2.97 |
| YCSIKCQQEHWHAEHKRTCRRGR | 2.33 |
| YCSIKCQQEHWHAEHKRTCRRMR | 1.55 |
| YCSIKCQQEHWHAEHKRTCRRPR | 1.94 |
| YCSIKCQQEHWHAEHKRTCRRSR | 3.04 |
| YCSIKCQQEHWHAEHKRTCRRFR | 2.13 |
| YCSIKCQQEHWHAEHKRTCRRAR | 1.83 |
| YCSIKCQQEHWHAEHKRTCRRNR | 1.37 |
| YCSIKCQQEHWHAEHKRTCRRQR | 2.64 |
| YCSIKCQQEHWHAEHKRTCRRCR | 2.6 |
| YCSIKCQQEHWHAEHKRTCRRVR | 2.15 |
| YCSIKCQQEHWHAEHKRTCRRHR | 1.74 |
| YCSIKCQQEHWHAEHKRTCRRTR | 1.91 |
| YCSIKCQQEHWHAEHKRTCRRER | 2.41 |
| YCSIKCQQEHWHAEHKRTCRRRR | 1.79 |
| YCSIKCQQEHWHAEHKRTCRRDR | 1.85 |
| YCSIKCQQEHWHAEHKRTCRRYR | 1.53 |
| YCSIKCQQEHWHAEHKRTCRRKV | 1.26 |
| YCSIKCQQEHWHAEHKRTCRRKK | 2.11 |
| YCSIKCQQEHWHAEHKRTCRRKW | 4.23 |

| Variant | protein stability index |
| --- | --- |
| YCSIKCQQEHWHAEHKRTCRRKE | 2.77 |
| YCSIKCQQEHWHAEHKRTCRRKM | 2.15 |
| YCSIKCQQEHWHAEHKRTCRRKY | 1.41 |
| YCSIKCQQEHWHAEHKRTCRRKA | 2.28 |
| YCSIKCQQEHWHAEHKRTCRRKL | 2.2 |
| YCSIKCQQEHWHAEHKRTCRRKQ | 3.2 |
| YCSIKCQQEHWHAEHKRTCRRKN | 2.09 |
| YCSIKCQQEHWHAEHKRTCRRKP | 3.21 |
| YCSIKCQQEHWHAEHKRTCRRKF | 1.58 |
| YCSIKCQQEHWHAEHKRTCRRKS | 2.64 |
| YCSIKCQQEHWHAEHKRTCRRKC | 2.04 |
| YCSIKCQQEHWHAEHKRTCRRKG | 5.07 |
| YCSIKCQQEHWHAEHKRTCRRKT | 2.26 |
| YCSIKCQQEHWHAEHKRTCRRKH | 2.26 |
| YCSIKCQQEHWHAEHKRTCRRKD | 1.86 |
| YCSIKCQQEHWHAEHKRTVRRKR | 2.48 |
| YCSIKCQQEHWHAEHKRTLRRKR | 2.83 |
| YCSIKCQQEHWHAEHKRTARRKR | 2.84 |
| YCSIKCQQEHWHAEHKRTQRRKR | 2.19 |
| YCSIKCQQEHWHAEHKRTPRRKR | 3.4 |
| YCSIKCQQEHWHAEHKRTGRRKR | 2.71 |
| YCSIKCQQEHWHAEHKRTRRRKR | 2.76 |

| Variant | protein stability index |
| --- | --- |
| YCSIKCQQEHWHAEHKRTWRRKR | 1.98 |
| YCSIKCQQEHWHAEHKRTHRRKR | 2.71 |
| YCSIKCQQEHWHAEHKRTERRKR | 2.75 |
| YCSIKCQQEHWHAEHKRTSRRKR | 2.82 |
| YCSIKCQQEHWHAEHKRTIRRKR | 2.72 |
| YCSIKCQQEHWHAEHKRTKRRKR | 2.3 |
| YCSIKCQQEHWHAEHKRTFRRKR | 2.24 |
| YCSIKCQQEHWHAEHKRTTRRKR | 2.77 |
| YCSIKCQQEHWHAEHKRTYRRKR | 3.63 |
| YCSIKCQQEHWHAEHKRTMRRKR | 2.41 |
| YCSIKCQQEHWHAEHKRTNRRKR | 2.21 |
| YCSIKCQQEHWHAEHKRTDRRKR | 3.46 |
| YCSIKCQQEHWHAEHKRTCYRKR | 2.28 |
| YCSIKCQQEHWHAEHKRTCLRKR | 2.17 |
| YCSIKCQQEHWHAEHKRTCQRKR | 1.51 |
| YCSIKCQQEHWHAEHKRTCARKR | 2.33 |
| YCSIKCQQEHWHAEHKRTCDRKR | 1.76 |
| YCSIKCQQEHWHAEHKRTCHRKR | 2.2 |
| YCSIKCQQEHWHAEHKRTCPRKR | 1.89 |
| YCSIKCQQEHWHAEHKRTCGRKR | 2.65 |
| YCSIKCQQEHWHAEHKRTCTRKR | 3.02 |
| YCSIKCQQEHWHAEHKRTCWRKR | 1.98 |

| Variant | protein stability index |
| --- | --- |
| YCSIKCQQEHWHAEHKRTCVRKR | 2.8 |
| YCSIKCQQEHWHAEHKRTCCRKR | 2 |
| YCSIKCQQEHWHAEHKRTCNRKR | 2.02 |
| YCSIKCQQEHWHAEHKRTCFRKR | 3.4 |
| YCSIKCQQEHWHAEHKRTCKRKR | 1.72 |
| YCSIKCQQEHWHAEHKRTCSRKR | 1.99 |
| YCSIKCQQEHWHAEHKRTCIRKR | 1.35 |
| YCSIKCQQEHWHAEHKRTCRQKR | 2.04 |
| YCSIKCQQEHWHAEHKRTCRHKR | 1.97 |
| YCSIKCQQEHWHAEHKRTCRDKR | 1.96 |
| YCSIKCQQEHWHAEHKRTCRVKR | 2.61 |
| YCSIKCQQEHWHAEHKRTCRAKR | 2.2 |
| YCSIKCQQEHWHAEHKRTCRNKR | 1.98 |
| YCSIKCQQEHWHAEHKRTCRMKR | 2.4 |
| YCSIKCQQEHWHAEHKRTCRPKR | 1.52 |
| YCSIKCQQEHWHAEHKRTCRFKR | 2.45 |
| YCSIKCQQEHWHAEHKRTCRYKR | 2.2 |
| YCSIKCQQEHWHAEHKRTCREKR | 2.43 |
| YCSIKCQQEHWHAEHKRTCRKKR | 2.92 |
| YCSIKCQQEHWHAEHKRTCRCKR | 2.15 |
| YCSIKCQQEHWHAEHKRTCRGKR | 2.84 |
| YCSIKCQQEHWHAEHKRTCRIKR | 2.99 |

| Variant | protein stability index |
| --- | --- |
| YCSIKCQQEHWHAEHKRTCRTKR | 2.41 |
| YCSIKCQQEHWHAEHKRTCRWKR | 1.94 |
| YCSIKCQQEHWHAEHKRTCRLKR | 2.2 |
| YCSIKCQQEHWHAEHKRTCRSKR | 3.06 |
| YCSIKCQQEHWHAEHKRQCRRKR | 3.08 |
| YCSIKCQQEHWHAEHKRFCRRKR | 2.47 |
| YCSIKCQQEHWHAEHKRWCRRKR | 2.16 |
| YCSIKCQQEHWHAEHKRICRRKR | 2.76 |
| YCSIKCQQEHWHAEHKRGCRRKR | 2.39 |
| YCSIKCQQEHWHAEHKRSCRRKR | 2.56 |
| YCSIKCQQEHWHAEHKRMCRRKR | 1.91 |
| YCSIKCQQEHWHAEHKRNCRRKR | 3.18 |
| YCSIKCQQEHWHAEHKRLCRRKR | 1.27 |
| YCSIKCQQEHWHAEHKRHCRRKR | 2.5 |
| YCSIKCQQEHWHAEHKRKCRRKR | 2.84 |
| YCSIKCQQEHWHAEHKRPCRRKR | 2.08 |
| YCSIKCQQEHWHAEHKRRCRRKR | 2.29 |
| YCSIKCQQEHWHAEHKRVCRRKR | 1.61 |
| YCSIKCQQEHWHAEHKRYCRRKR | 2.45 |
